Article PMC6941993

Tests used:
Assay in all cases: SPR; Biacore T200; […]; single-cycle kinetics; […]
[1] = target: GP1_(JUNV)–Fc (Junín virus (JUNV)) (UniProt O10428)
[2] = target: GP1_(MACV)–Fc (Machupo virus (MACV)) (UniProt Q8AZ52)
[3] = target: GP1_(WWAV)–Fc (Whitewater Arroyo virus (WWAV)) (UniProt Q911P0)

Question: “stand-alone apical domain (sAD) designed from White-throated woodrat TfR1 (domain or fragment)” was tested. Which Kd [1] did it give?
Answer: 1 µM

Question: What about the Kd [2] of the same substance?
Answer: 0.004 µM

Question: What about the Kd [3] of the same substance?
Answer: 1 µM
